{"source": "the RNAGym collection of RNA variant scans (doi:10.1021/acssynbio.7b00057)", "parents": {"B1": {"name": "Pistol ribozyme (parent)", "chain": "GGGUCGUUGUUCCAUAAUCGCGUGGAUAUGGCACGCAAGUUUCUACCGGGCACCGUAAAUGUCCGACUGGAGCCGUUCGGGCGGCUAUAAACAGACCUCAGGCCCGAAGCGUGGCGGCACCUGCCGCCGGUGGUAAAAAAGAUCGGAAGAGCACACGUCU"}}}
{"variants_of": "B1", "assay": "aptazyme ON/OFF ratio, guanine; higher = stronger switching; co-transcriptional cleavage with and without guanine"}
{"variant": "U7G U8G G9U U10G C13A", "aptazyme ON/OFF ratio": 1.27}
{"variant": "U7G G9A C12A C13U", "aptazyme ON/OFF ratio": 1.13}
{"variant": "U7G U8C G9C C12U C13G", "aptazyme ON/OFF ratio": 1.12}
{"variant": "U7A U8C G9C U10G U11G C13A", "aptazyme ON/OFF ratio": 1.12}
{"variant": "U7A U8C G9U U10A U11A C12G C13A", "aptazyme ON/OFF ratio": 1.15}
{"variant": "U7A U8G G9C U10G U11G C12U C13G", "aptazyme ON/OFF ratio": 1.18}
{"variant": "U7G U8C G9U U10A U11A C12A C13U", "aptazyme ON/OFF ratio": 1.32}
{"variant": "U7C G9C U10G U11C C12G", "aptazyme ON/OFF ratio": 1.25}
{"variant": "U7G U8G G9U U10C U11C C13G", "aptazyme ON/OFF ratio": 1.21}
{"variant": "G9U U11C C12G", "aptazyme ON/OFF ratio": 1.83}
{"variant": "U7A U8G G9A U10A C12U C13U", "aptazyme ON/OFF ratio": 1.04}
{"variant": "U7A U8C G9C U10C C12A C13G", "aptazyme ON/OFF ratio": 1.13}
{"variant": "U8A U10A C13A", "aptazyme ON/OFF ratio": 1.05}
{"variant": "U7A U8G G9C U10A U11C C12A C13G", "aptazyme ON/OFF ratio": 1.28}
{"variant": "U7G U8A G9A U10C U11A C13A", "aptazyme ON/OFF ratio": 1.08}
{"variant": "U7C U8A G9U U10C U11C C13A", "aptazyme ON/OFF ratio": 1.02}
{"variant": "U8G G9U U10G C12U C13A", "aptazyme ON/OFF ratio": 1.03}
{"variant": "U7C U8G G9C U10C U11C C12A C13A", "aptazyme ON/OFF ratio": 1.03}
{"variant": "U7G G9U U10G U11C C13A", "aptazyme ON/OFF ratio": 1.2}
{"variant": "U8A G9U U10A U11G", "aptazyme ON/OFF ratio": 1.42}
{"variant": "U7C U8A U10G U11G C12U C13A", "aptazyme ON/OFF ratio": 1.21}
{"variant": "U7G U8A G9U U10G C13A", "aptazyme ON/OFF ratio": 1.35}
{"variant": "U7A U8G G9U U10C U11C C12A", "aptazyme ON/OFF ratio": 1.3}
{"variant": "U7G U8G U10C U11G", "aptazyme ON/OFF ratio": 1.56}
{"variant": "U7G U8G G9U U10G U11G C13G", "aptazyme ON/OFF ratio": 1.08}
{"variant": "U7G G9C C12U C13G", "aptazyme ON/OFF ratio": 1.18}
{"variant": "G9A U10C U11C C12U C13U", "aptazyme ON/OFF ratio": 1.06}
{"variant": "U7A G9A U11C C12G", "aptazyme ON/OFF ratio": 1.18}
{"variant": "U7C U8G G9U U10C C12G C13U", "aptazyme ON/OFF ratio": 1.25}
{"variant": "U7G U8C U10A C12U C13A", "aptazyme ON/OFF ratio": 1.36}
{"variant": "U7C U8A G9U U11C C12U C13A", "aptazyme ON/OFF ratio": 1.05}
{"variant": "U8A G9C U10G U11A C12U C13G", "aptazyme ON/OFF ratio": 1.11}
{"variant": "U7G U8C U10C C12A C13A", "aptazyme ON/OFF ratio": 1.19}
{"variant": "U7A U8G G9A U10C U11C C12G C13U", "aptazyme ON/OFF ratio": 1.04}
{"variant": "U7C U8C G9U U10G U11A C12U C13U", "aptazyme ON/OFF ratio": 1.21}
{"variant": "U7G U8G G9U U10C C12U C13U", "aptazyme ON/OFF ratio": 1.35}
{"variant": "U7C G9C C12A C13A", "aptazyme ON/OFF ratio": 1.05}
{"variant": "U7C U8C G9C U10G U11A C12A", "aptazyme ON/OFF ratio": 1.16}
{"variant": "U8G U10C U11C C12G C13A", "aptazyme ON/OFF ratio": 1.1}
{"variant": "U7C U8G U10A U11A C12A C13A", "aptazyme ON/OFF ratio": 1.1}
{"variant": "U7C U8A G9U U10G U11G C12A", "aptazyme ON/OFF ratio": 1.16}
{"variant": "U7A U8G U11C C12A C13G", "aptazyme ON/OFF ratio": 1.12}
{"variant": "U7G U8G U10G U11A C12G C13A", "aptazyme ON/OFF ratio": 1.28}
{"variant": "U7C G9U U11C C13G", "aptazyme ON/OFF ratio": 1.02}
{"variant": "U7G U8A U10G C12U C13A", "aptazyme ON/OFF ratio": 1.6}
{"variant": "U7C U8G G9C U10C U11G C12G C13U", "aptazyme ON/OFF ratio": 1.05}
{"variant": "U7A G9C C12A C13G", "aptazyme ON/OFF ratio": 1.04}
{"variant": "U7G G9U U10A C12U C13A", "aptazyme ON/OFF ratio": 1.06}
{"variant": "U7G U8G U10A U11A C12U", "aptazyme ON/OFF ratio": 1.25}
{"variant": "U8A U10A U11C C13U", "aptazyme ON/OFF ratio": 1.04}
{"variant": "U7A G9C U10A U11C C13A", "aptazyme ON/OFF ratio": 1.01}
{"variant": "U8C G9C U11C C12A C13A", "aptazyme ON/OFF ratio": 1.03}
{"variant": "U7G U8G G9A U11G C13A", "aptazyme ON/OFF ratio": 1.26}
{"variant": "U7A U8A G9A U10A U11C C12A", "aptazyme ON/OFF ratio": 1.24}
{"variant": "G9A U10G U11A C12U C13G", "aptazyme ON/OFF ratio": 1.2}
{"variant": "U7G U8G G9C U11A C13G", "aptazyme ON/OFF ratio": 1.04}
{"variant": "U7G U8C G9A U11C C13G", "aptazyme ON/OFF ratio": 1.06}
{"variant": "U8G U11C C12G C13G", "aptazyme ON/OFF ratio": 1.3}
{"variant": "U7G G9U U10C U11C C12A C13G", "aptazyme ON/OFF ratio": 1.4}
{"variant": "U8G U10A U11G C12U C13G", "aptazyme ON/OFF ratio": 1.22}
{"variant": "U7C U11C C12U C13U", "aptazyme ON/OFF ratio": 1.29}
{"variant": "G9C U10A U11A C12A C13A", "aptazyme ON/OFF ratio": 1.4}
{"variant": "U8C U10G U11A C12G", "aptazyme ON/OFF ratio": 1.23}
{"variant": "U8C G9U U11A C12G", "aptazyme ON/OFF ratio": 1.36}
{"variant": "U7G U8C G9C U10G U11C C12G C13G", "aptazyme ON/OFF ratio": 1.15}
{"variant": "U7C G9A U11A C12U C13G", "aptazyme ON/OFF ratio": 1.09}
{"variant": "U7C U8G G9C U11A C12A C13U", "aptazyme ON/OFF ratio": 1.22}
{"variant": "U7G U8A G9A U10C U11G C12A", "aptazyme ON/OFF ratio": 1.04}
{"variant": "U8C U10G U11C C12U C13A", "aptazyme ON/OFF ratio": 1.26}
{"variant": "U7G U8G G9C U10C U11A C12G C13G", "aptazyme ON/OFF ratio": 1.24}
{"variant": "U7C U8C G9C U11C C12U C13G", "aptazyme ON/OFF ratio": 1.08}
{"variant": "U8G G9U U11C C12G", "aptazyme ON/OFF ratio": 1.12}
{"variant": "U7A U8G U10G U11G C12U C13A", "aptazyme ON/OFF ratio": 1.31}
{"variant": "U7A G9C U10A C12A", "aptazyme ON/OFF ratio": 1.11}
{"variant": "U7G G9A U10C U11A C12A C13G", "aptazyme ON/OFF ratio": 1.09}
{"variant": "U7G G9A U10C C12U C13A", "aptazyme ON/OFF ratio": 1.18}
{"variant": "U8G U10A U11A C12A C13G", "aptazyme ON/OFF ratio": 1.11}
{"variant": "U8C G9U U10A U11C C12U C13U", "aptazyme ON/OFF ratio": 1.23}
{"variant": "G9A U10G U11C C12U C13G", "aptazyme ON/OFF ratio": 1.22}
{"variant": "U8G U10G U11A C12G", "aptazyme ON/OFF ratio": 1.28}
{"variant": "U8G U10G U11A C12U C13A", "aptazyme ON/OFF ratio": 1.14}
{"variant": "U7C U8A U10A U11G", "aptazyme ON/OFF ratio": 1.22}
{"variant": "U7C G9A U10A U11G C12U C13A", "aptazyme ON/OFF ratio": 1.16}
{"variant": "U7G U8G G9U U10A U11G C12G", "aptazyme ON/OFF ratio": 1.08}
